System: 3T3 F442A adipose cells
Assay: Integrin-like signaling in adipose cells, immunoblot
Format: cell-based, murine
Conditions: irisin 10 minutes
Experimental: Differentiated 3T3 F442A adipose cells were incubated in serum free medium for 4 hours followed by treatment of indicated concentrations of irisin for 10 minutes. Cells were lysed to detect the indicated protein level using immunoblot analysis.
Certain materials and methods were used to generate the results described herein. For example, the data shown in FIG. 1A resulted from MLO-Y4 (an osteocyte-like cell line) cells treated with the indicated concentration of irisin and hydrogen peroxide for 4 hours. Cells were stained with Hoechst 33342 (ThermoFisher Scientific, catalog number H3570) and Eth-D1 (ThermoFisher Scientific, catalog number E1169) and analyzed to determine the percentage of cell death using ImageJ. […] Co-precipitated irisin was analyzed by immunoblot analysis against flag tag (Sigma Aldrich, catalog number A8592). The data shown in FIGS. 5A and 5B were generated from MLO-Y4 cells treated and analyzed as in the experiments used to generate the data shown in FIG. 2D, except that pre-treatment of 100 nM RGDS (FIG. 5A) or echistatin (R & D Systems Inc., catalog number 3202/100U) (FIG. 5B) for 10 minutes was performed before irisin treatment. […] Sclerostin mRNA level was analyzed by qPCR (FIG. 7A). […] Epididymal fats were collected, RNAs were extracted from the tissues, and mRNA levels of the indicated genes were analyzed by qPCR. […]

B1: irisin: secreted cleaved form of FNDC5; recombinant human/mouse irisin with C-terminal his tag produced in HEK293 cells (protein)
chain: DSPSAPVNVTVRHLKANSAVVSWDVLEDEVVIGFAISQQKKDVRMLRFIQEVNTTTRSCALWDLEEDTEYIVHVQAISIQGQSPASEPVLFKTPREAEKMASKNKDEVTMKE
modifications: left off: small tags and cut ends
notes: secreted cleaved form of FNDC5; recombinant human/mouse irisin with C-terminal his tag produced in HEK293 cells
- irisin dose at which phosphorylation of FAK and CREB were observed: 30 pM
